Measurements from US20200317802A1.

T1: human ADAMTS4 (R&D Systems cat #4307-AD) (human) (UniProt O75173)
T1 sequence (looked up): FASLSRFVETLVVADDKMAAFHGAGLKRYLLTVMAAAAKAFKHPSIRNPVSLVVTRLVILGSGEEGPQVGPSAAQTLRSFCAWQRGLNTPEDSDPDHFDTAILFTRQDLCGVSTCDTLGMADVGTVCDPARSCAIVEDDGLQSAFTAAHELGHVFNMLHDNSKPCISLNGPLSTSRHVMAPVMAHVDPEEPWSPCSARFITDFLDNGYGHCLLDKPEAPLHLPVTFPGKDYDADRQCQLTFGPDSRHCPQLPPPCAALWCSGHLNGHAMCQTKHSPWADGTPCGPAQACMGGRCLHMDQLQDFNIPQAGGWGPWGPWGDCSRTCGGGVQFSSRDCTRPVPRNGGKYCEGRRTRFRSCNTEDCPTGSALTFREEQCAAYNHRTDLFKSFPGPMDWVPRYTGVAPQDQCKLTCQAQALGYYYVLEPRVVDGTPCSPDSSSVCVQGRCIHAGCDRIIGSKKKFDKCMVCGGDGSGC


Assays:
[1] = biological target: recombinant human ADAMTS5 (R&D Systems cat #2198-AD) (human) (UniProt Q9UNA0); test: cell-based or functional assay
Chain of recombinant human ADAMTS5 (R&D Systems cat #2198-AD) (human) (Q9UNA0 262-622 limits assumed): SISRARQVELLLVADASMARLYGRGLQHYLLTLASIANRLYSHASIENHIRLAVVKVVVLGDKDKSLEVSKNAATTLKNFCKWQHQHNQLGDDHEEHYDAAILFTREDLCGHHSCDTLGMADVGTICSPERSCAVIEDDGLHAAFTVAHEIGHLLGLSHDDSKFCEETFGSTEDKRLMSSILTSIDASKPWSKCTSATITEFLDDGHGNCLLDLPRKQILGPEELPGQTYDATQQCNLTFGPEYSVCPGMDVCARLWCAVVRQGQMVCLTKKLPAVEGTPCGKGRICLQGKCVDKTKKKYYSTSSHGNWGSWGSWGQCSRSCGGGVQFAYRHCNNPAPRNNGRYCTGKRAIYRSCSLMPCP

[2] = biological target: T1, human ADAMTS4 (R&D Systems cat #4307-AD) (human)
[3] = biological target: activated human MMP-1 (human) (UniProt P03956)
Chain of activated human MMP-1 (human) (P03956 100-469 limits assumed): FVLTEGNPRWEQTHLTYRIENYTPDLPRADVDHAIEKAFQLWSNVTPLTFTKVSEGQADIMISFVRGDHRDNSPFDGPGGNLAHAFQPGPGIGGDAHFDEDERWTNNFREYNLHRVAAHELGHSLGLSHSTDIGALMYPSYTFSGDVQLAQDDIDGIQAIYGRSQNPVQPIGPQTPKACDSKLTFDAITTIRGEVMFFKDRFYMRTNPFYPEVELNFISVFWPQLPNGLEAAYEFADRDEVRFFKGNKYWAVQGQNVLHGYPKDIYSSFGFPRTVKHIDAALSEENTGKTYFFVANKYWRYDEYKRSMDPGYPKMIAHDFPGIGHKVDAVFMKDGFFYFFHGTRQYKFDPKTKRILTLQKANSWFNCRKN

[4] = biological target: bovine recombinant ADAMTS5 (bovine); test: SPR off-rate, Biacore T100, ADAMTS5 immobilised, experiment 3

koff [4]	Binder	also measured
–	rhTIMP3 (protein, human, UniProt P35625 24-211, looked up) CTCSPSHPQDAFCNSDIVIRAKVVGKKLVKEGPFGTLVYTIKQMKMYRGFTKMPHVQYIHTEASESLCGLKLEVNKYQYLLTGRVYDGKMYTGLCNFVERWDQLTLSQRKGLNYRYHLGCNCKIKSCYYLPCFVTSKNECLWTDMLSNFGYPGYQSKHYACIRQKGGYCSWYRGWAPPDKSIINATDP	Human AlphaLISA % inhibition [1]: 100%; Human AlphaLISA IC50 [1]: 610 pM; IC50 (read off the curve) (human ADAMTS-4 AlphaLISA) [right panel] [2]: 2 nM; IC50 (read off the curve) (human MMP-1 activity, FRET peptide substrate) [3]: 5 nM
0.00062 s⁻¹	Nanobody 2D07 (VHH) VHH: EVQLVESGGGLVQAGGSLRLSCSFSGPGRTFARYAMGWFRQAPGKNRDFITGISGSGDSTYYVYPMKDRFTISRDNAKNMVYLQMNALKPEDTAVYYCAADREINRIANDKELDFWGQGTLVTVSS	–
0.00024 s⁻¹	Nanobody 11B06 (VHH) VHH: EVQLVESGGGLVQAGGSLRLSCAASGLTFRRNAMGWFRQAPGKERELLAGINWSGGTTYYVDSVKGRFTISRDNAKNTVDLQMISPKPEDTAVYYCAADGDIGTLVNDENPRYWGQGTLVTVSS	–
4.3e-05 s⁻¹	Nanobody 2F03 (VHH) VHH: EVQLVESGGGLVQAGGSLRLSCAASGRTVSSYAMGWFRLAPGKEREFVAGISRSAERTYYVDSLKGRFTISRDSAKNTVYLHMNRLKPEDTAVYYCAADLDPNRIFSREEYAYWGQGTLVTVSS	–
0.00017 s⁻¹	Nanobody 2A12 (VHH) VHH: EVQLVESGGGLVQAGGSLRLSCAASGRTFSSYAMGWFRQAPGKERDFVAGISRSAGRTYYVDSVKGRFTISRDSAKNTVYLQMNRLKPEDTAVYYCAADLDPNRIFSRDEAAYWGQGTLVTVSS	–
0.00035 s⁻¹	Nanobody 3D01 (VHH) VHH: EVQLVESGGGLVQAGGSLRLSCAPSGFTFSPYYMGWFRQAPGKERDFVAAISRSRGTTYYLDSTEGRFTISRDNANDTVYLQMNSLNPEDTAVYYCAAGRSPGDPSRTYLYDYWGQGTLVTVSS	–
0.00099 s⁻¹	Nanobody 9D03 (VHH) VHH: EVQLVESGGGLVQSGGSLRLSCAASGSAVSVNAMAWYRQAPGKQRDFVAGISRSAGRTYYTDSVKDRFTIARDSAKNTVYLQMNRLKPEDTAVYYCAADLDPNRIFSRDEAAYWGQGTLVTVSS	–
0.0011 s⁻¹	Nanobody 3B02 (VHH) VHH: EVQLVESGGGFVQAGGSLRLSCVASRRTISSGTMGWFRQAPGKEREFVAAIRWSSGMPYYLDSVMDRFTISRDNAKNTVSLQMNSLQPEDTAVYYCAADRSAFRDPSFDVNYEYWGRGTLVTVSS	–
